Test results reported in patent US20120082681A1 (Novartis, published 2012).
Residue numbers refer to the chain shown, from its start. Names may count otherwise.

T1: mouse IL12Rbeta1 (mouse, UniProt Q60837 20-565, limits assumed)
T1 construct: also called murine IL12Rbeta1; rodent IL12Rbeta1 proteins
T1 sequence (looked up): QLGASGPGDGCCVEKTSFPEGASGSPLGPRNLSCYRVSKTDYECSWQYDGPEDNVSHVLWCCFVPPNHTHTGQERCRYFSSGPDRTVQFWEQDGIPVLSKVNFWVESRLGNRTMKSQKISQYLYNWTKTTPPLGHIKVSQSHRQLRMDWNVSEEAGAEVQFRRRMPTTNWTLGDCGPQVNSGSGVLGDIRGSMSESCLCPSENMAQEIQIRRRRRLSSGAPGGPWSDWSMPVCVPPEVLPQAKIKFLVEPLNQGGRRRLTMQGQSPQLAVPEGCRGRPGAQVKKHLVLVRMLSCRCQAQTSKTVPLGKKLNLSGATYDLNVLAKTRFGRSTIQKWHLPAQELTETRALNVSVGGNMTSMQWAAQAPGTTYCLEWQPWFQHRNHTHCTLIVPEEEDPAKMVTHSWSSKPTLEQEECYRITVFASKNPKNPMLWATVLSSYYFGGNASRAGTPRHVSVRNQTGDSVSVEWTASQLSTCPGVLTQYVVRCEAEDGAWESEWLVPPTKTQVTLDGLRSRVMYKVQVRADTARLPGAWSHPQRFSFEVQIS

B1: mAb1 (MOR11873 with IgG1 LALA Fc variant) (antibody, V domains shown)
VH: QVQLVESGGGVVQPGRSLRLSCAASGFTFTSYGMSWVRQAPGKGLEWVAGISYSGSDTEYADSVKGRFTISRDNSKNTLYLQMNSLRAEDTAVYYCARSPDYIIDYGFDYWGRGTLVTVSS
VL: AIQMTQSPSSLSASVGDRVTITCRASQGISSDLAWYQQKPGKAPKLLIYDASSLQSGVPSRFSGSGSGTDFTLTISSLQPEDFATYYCQQYWIYPFTFGQGTKVEIKR
notes: Human IgG1 L234A L235A (LALA), expressed in HKB11 cells
B2: mAb4 (MOR11878 with IgG1 LALA Fc variant) (antibody, V domains shown)
VH: B1 VH with S54D, G55A
VL: B1 VL with I93W
notes: as for B1
B3: mAb7 (MOR11879 with IgG1 LALA Fc variant) (antibody, V domains shown)
VH: QVQLVQSGAEVKKPGASVKVSCKASGYTFTGYYMHWVRQAPGQGLEWMGMIGPQHGEAIYAQKFQGRVTMTRDTSISTAYMELSRLRSEDTAVYYCARESTDSDESPFDYWGQGTLVTVSS
VL: DIELTQPPSVSVSPGQTASITCSGDNIRSYYVSWYQQKPGQAPVLVIYDDSDRPSGIPERFSGSNSGNTATLTISGTQAEDEADYYCQSYGSHSNFVVFGGGTKLTVLG
notes: as for B1
B4: mAb10 (MOR11880 with IgG1 LALA Fc variant) (antibody, V domains shown)
VH: B3 VH with E89D
VL: B3 VL with D1S, I2Y, P8L, S13A, P14L, S19R, G76R, T77A, E80G
notes: as for B1
B5: MOR11873 (antibody, V domains shown)
VH: B1 VH
VL: B1 VL
notes: Named by its variable regions only; H/DxMS used a representative antibody of the group; also called group mAb1, mAb2, mAb3, mAb13 (MOR11873)
B6: MOR11878 (antibody, V domains shown)
VH: B1 VH with S54D, G55A
VL: B1 VL with I93W
notes: Named by its variable regions only; H/DxMS used a representative antibody of the group; also called group mAb4, mAb5, mAb6, mAb14 (MOR11878)
B7: MOR11880 (antibody, V domains shown)
VH: B3 VH with E89D
VL: B3 VL with D1S, I2Y, P8L, S13A, P14L, S19R, G76R, T77A, E80G
notes: Named by its variable regions only; H/DxMS used a representative antibody of the group; also called group mAb10, mAb11, mAb12, mAb16 (MOR11880)

What was measured:
[1] = target: T2, human IL12Rβ1 naturally expressed on cells (Kit225 cells, human T-cells, human blood cells) (human, UniProt P42701 24-662); assay: flow cytometry, cell binding on Kit225 (human natural expression)
T2 construct: also called IL12 receptor beta 1
Procedure: (§1) Cell binding of selected antibodies is tested using various IL-12Rβ1 expressing cell lines, e.g. Kit 225 or HSC—F, or human and cyno T cell blasts, employing flow cytometry. After incubation with serial antibody dilutions, staining of the cells is quantified by flow cytometric analysis.

[2] = target: T3, cynomolgous monkey IL12Rβ1 (recombinant, construct not stated) (cynomolgus monkey, UniProt P42701 24-545 (human entry), limits assumed); assay: SPR (Biacore), cyno IL12Rβ1
T3 construct: The SPR method describes capture of an IL12Rβ1-Fc fusion, but the cyno construct is not described; the whole entry is named; also called cyno IL12Rβ1; cynomolgus IL12Rbeta1

[3] = target: T4, cynomolgous IL12Rβ1 naturally expressed on cells (HSC-F cells, cyno T-cells, cyno blood cells) (cynomolgus monkey, UniProt P42701 24-662 (human entry)); assay: cell-based or functional assay
[4] = target: T2, human IL12Rβ1 naturally expressed on …; assay: cell-based or functional assay
[5] = target: T5, human IL12Rbeta1 polypeptide (soluble receptor/antigen, construct not stated) (human, UniProt P42701 24-545); assay: in vitro competitive binding assay (Bioveris/MSD); inhibition of receptor binding to coated IL12; IL12 competitive binding (first number of 8/18)
T5 construct: the whole entry is named; also called IL12Rβ1; the receptor
Procedure: (§2) During the assay procedure, a fixed amount (predetermined to result in near maximum signal) of the receptor was incubated with increasing concentrations (1:100 to 100:1 molar ratio) of purified Fab/IgG in solution. Subsequently, the samples were transferred to a ligand coated and blocked MSD multi-titer plate. The free receptor binds to the ligand and was detected via an appropriate ruthenium complex-labeled antibody and quantified. The concentration of bound receptor as an inverse function of Fab/IgG concentration used for incubation was fitted using the respective model. The inflection point of the fitted curve represents the IC₅₀ value.

[6] = target: T2, human IL12Rβ1 naturally expressed on …; assay: flow cytometry, cell binding on human T-cells (human natural expression)
Procedure: as §1

[7] = target: T4, cynomolgous IL12Rβ1 naturally expressed …; assay: flow cytometry, cell binding on HSC-F (cyno natural expression)
Procedure: as §1

[8] = target: T4, cynomolgous IL12Rβ1 naturally expressed …; assay: flow cytometry, cell binding on cyno T-cells (cyno natural expression)
Procedure: as §1

[9] = target: T5, human IL12Rbeta1 polypeptide (soluble …); assay: in vitro competitive binding assay (Bioveris/MSD); inhibition of receptor binding to coated IL23; IL23 competitive binding (second number of 8/18)
Procedure: as §2

human IL12Rβ1-Fc-Fusion = target: T6, human IL12Rβ1-Fc-Fusion (human, UniProt P42701 24-545); assay: SPR (Biacore), IL12Rβ1-Fc fusion captured on anti-human-Fc CM5 chip
T6 construct: Captured on an anti-human-Fc chip for SPR; not shown: Fc part of the fusion
From the text: For determination of KD values, surface plasmon resonance technology was applied using the Biacore™ technology. Anti-human-Fc-capture CM5 chip (Biacore, Sweden) was used for capturing IL12Rβ1-Fc-Fusion followed by ligand (Fab) injection at different concentrations.

[10] = target: T5, human IL12Rbeta1 polypeptide (soluble …); assay: in vitro competitive binding assay (Bioveris/MSD); inhibition of receptor binding to coated IL12
Procedure: as §2

[11] = target: T5, human IL12Rbeta1 polypeptide (soluble …); assay: in vitro competitive binding assay (Bioveris/MSD); inhibition of receptor binding to coated IL23
Procedure: as §2

mouse IL12Rbeta1 = target: T1, mouse IL12Rbeta1; assay: not described

Binder	EC50 [1]	Kd [2]	IL12/IL18 dependent IFNγ production In cyno blood cells (IC50, pM) [3]	IL12/IL18 dependent IFNγ production In human blood cells (IC50, pM) [4]	IC50 [5]	EC50 [6]	EC50 [7]	EC50 [8]	IC50 [9]	Kd (human IL12Rβ1-Fc-Fusion)	IC50 [10]	IC50 [11]	binding result (mouse IL12Rbeta1)
B1	6 pM	0.1 nM	239 pM	28 pM	8 pM	0.033 nM	0.023 nM	0.055 nM	0.018 nM	0.04 nM	–	–	–
B2	5 pM	0.1 nM	216 pM	77 pM	–	0.038 nM	0.013 nM	0.041 nM	–	0.02 nM	8 pM	0.013 nM	–
B3	10 pM	0.6 nM	284 pM	24 pM	–	0.015 nM	0.023 nM	0.036 nM	–	0.04 nM	8 pM	0.02 nM	–
B4	11 pM	0.6 nM	1180 pM	42 pM	–	0.016 nM	–	0.028 nM	–	0.04 nM	8 pM	0.02 nM	–
B5	–	–	–	–	–	–	–	–	–	–	–	–	no binding
B6	–	–	–	–	–	–	–	–	–	–	–	–	no binding
B7	–	–	–	–	–	–	–	–	–	–	–	–	no binding
